Source: patent US5708158, “Nuclear factors and binding assays” (Tularik Inc., dated 1998)

Target: T1, NFATc-589 (translated in vitro) (human)
T1 chain: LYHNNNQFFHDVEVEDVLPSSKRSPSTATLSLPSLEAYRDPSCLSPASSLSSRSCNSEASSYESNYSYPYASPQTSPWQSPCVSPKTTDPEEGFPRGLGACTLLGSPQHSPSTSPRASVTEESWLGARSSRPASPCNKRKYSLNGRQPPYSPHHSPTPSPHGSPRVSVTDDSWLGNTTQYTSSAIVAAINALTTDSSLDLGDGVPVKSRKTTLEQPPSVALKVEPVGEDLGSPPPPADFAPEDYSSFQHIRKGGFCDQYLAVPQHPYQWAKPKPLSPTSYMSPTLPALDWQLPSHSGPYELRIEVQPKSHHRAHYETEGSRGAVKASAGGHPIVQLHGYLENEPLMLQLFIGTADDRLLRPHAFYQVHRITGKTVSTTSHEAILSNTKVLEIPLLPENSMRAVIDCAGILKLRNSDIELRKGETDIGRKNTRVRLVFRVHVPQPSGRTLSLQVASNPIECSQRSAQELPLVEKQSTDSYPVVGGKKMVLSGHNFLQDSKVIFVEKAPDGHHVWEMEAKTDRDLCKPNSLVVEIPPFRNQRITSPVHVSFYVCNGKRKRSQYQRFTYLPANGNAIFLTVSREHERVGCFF
Assay: gel mobility shift assay with two co-translated NFATc versions of different size; test for dimers on DNA
Text: After determining that NFAT rel domains were monomers in solution, we then considered the possibility that NFAT proteins might form dimers when bound to DNA. To address this question we carried out gel mobility shift assays with two different sized versions of NFATc translated in vitro (Hope and Struhl 1987). The shorter version contains the rel similarity region and a small amount of flanking residues and is referred to as NFATc-309. This construct is equivalent to the one that was expressed in *E. coli*. The larger version, NFATc-589, contains additional N-terminal sequences. When expressed individually in a rabbit reticulocyte lysate both versions of NFATc were active and produced protein-DNA complexes with different mobilities. When the two different NFATc proteins were mixed by co-translation the same protein-DNA complexes were apparent and no intermediate species was detectable, as would be expected if the proteins were forming dimers on the DNA.
Electrophoretic mobility shift assays were performed with the indicated amounts of proteins in 50 mM KCl, 25 mM HEPES, 0.05 mM EDTA, 5% glycerol, 1 mM DTT with […] of poly(dI-dC) and 100 ng of BSA. The binding reactions and electrophoresis were carried out at room temperature. The samples were run on a 5% polyacrylamide, 0.5× TBE gel at 200 V.

B1: NFATc-309 (translated in vitro) (other)
chain: MSPTLPALDWQLPSHSGPYELRIEVQPKSHHRAHYETEGSRGAVKASAGGHPIVQLHGYLENEPLMLQLFIGTADDRLLRPHAFYQVHRITGKTVSTTSHEAILSNTKVLEIPLLPENSMRAVIDCAGILKLRNSDIELRKGETDIGRKNTRVRLVFRVHVPQPSGRTLSLQVASNPIECSQRSAQELPLVEKQSTDSYPVVGGKKMVLSGHNFLQDSKVIFVEKAPDGHHVWEMEAKTDRDLCKPNSLVVEIPPFRNQRITSPVHVSFYVCNGKRKRSQYQRFTYLPANGNAIFLTVSREHERVGCFF
Question: Does B1 bind?
Answer: no binding
